T1: human NKp30 (human, UniProt O14931 19-135)
T1 chain: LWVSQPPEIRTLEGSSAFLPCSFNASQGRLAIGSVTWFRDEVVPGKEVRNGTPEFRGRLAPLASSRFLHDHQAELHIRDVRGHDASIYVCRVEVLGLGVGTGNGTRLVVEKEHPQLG

T2: cynomolgus NKp30 (cynomolgus, UniProt P61483 19-135)
T2 chain: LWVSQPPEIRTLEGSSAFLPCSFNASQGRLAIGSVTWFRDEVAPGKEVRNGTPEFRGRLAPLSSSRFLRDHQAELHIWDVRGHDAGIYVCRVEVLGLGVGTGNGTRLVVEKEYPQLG


Legend:
Test in all cases: ELISA (A450)
[1] = target: T1, human NKp30
[2] = target: T2, cynomolgus NKp30
[3] = target: Rat NKp30

IC50 [1] [nM]	IC50 [2] [nM]	IC50 [3] [nM]	Binder
0.89	0.89		hamster anti-NKp30 antibody 9D9 (antibody, V domains shown) VH: QIQLQESGPGLVKPSQSLSLSCSVTGFSINTGGYHWNWIRQFPGKKVEWMGYIYSSGTTKYNPSLKSRISITRDTSKNQFFLQLNSVTTEDTATYYCARGDWHYFDYWGQGTMVAVSS VL: SYTLTQPPLVSVALGQKATIICSGENLSDKYVHWYQQKPGRAPVMVIYENDKRPSGIPDQFSGSNSGNIATLTISKAQAGYEADYYCHCWDSTNSAVFGSGTHLTVL
		0.32	9D9-1C1 (antibody, V domains shown) VH: QIQLQESGPGLVKPSQSLSLSCSVTGFSINTGGYHWNWIRQFPGKKVEWMGYIYSSGTTKYNPSLKSRISITRDTSKNQFFLQLNSVTTEDTATYYCARGDWHYFDYWGQGTMVAVSS VL: SYTLTQPPLVSVALGQKATIICSGENLSDKYVHWYQQKPGRAPVMVIYENDKRPSGIPDQFSGSNSGNIATLTISKAQAGYEADYYCHCWDSTNSAVFGSGTHLTVL
